In patent US20180009892A1:

Molecular target: human ROR1 extracellular domain (ECD) protein (human) (UniProt Q01973)
Experiment: ForteBio Octet, blocking of Wnt5a binding to ROR1

Chain of human ROR1 extracellular domain (ECD) protein (human) (Q01973 30-406 limits assumed): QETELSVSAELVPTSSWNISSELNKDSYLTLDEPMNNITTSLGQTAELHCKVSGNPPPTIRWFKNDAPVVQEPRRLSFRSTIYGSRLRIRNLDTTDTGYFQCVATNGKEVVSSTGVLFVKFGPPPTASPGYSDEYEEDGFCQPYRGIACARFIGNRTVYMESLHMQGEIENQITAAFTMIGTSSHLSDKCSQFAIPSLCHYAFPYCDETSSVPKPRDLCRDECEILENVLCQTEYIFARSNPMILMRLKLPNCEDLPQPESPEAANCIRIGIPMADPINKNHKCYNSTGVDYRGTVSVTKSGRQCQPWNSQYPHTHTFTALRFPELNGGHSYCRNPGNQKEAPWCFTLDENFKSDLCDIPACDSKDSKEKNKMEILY

- Percentage Blocking: 0%
Substance: mAb Control (antibody)
